In assay [1] the target is ΔImpα3, truncated importin α3 lacking the importin β-binding (IBB) domain (human). In words: ITC; PADI4 or peptide (100 µM) in the syringe titrated into importin (10 µM) in the cell; 20 mM Tris pH 7.5, 5 mM TCEP, 150 mM NaCl, 5% glycerol; 25 °C; single-site model. For orientation: ITC needs no label: the signal is the heat of the interaction.
For assay [2], the target named is human importin α3 (Impα3), intact (human). The description is as above.
For assay [3], the target named is ΔImpα3, truncated importin α3 lacking the importin β-binding (IBB) domain (human). In words: other fluorescence titration; peptide 0-20 µM added to 3 µM Impα3 or ΔImpα3; 20 mM Tris pH 7.5, 5 mM TCEP, 150 mM NaCl, 5% glycerol; 25 °C; fluorescence at 330 nm.
The target of assay [4] is human importin α3 (Impα3), intact (human). Described as above.
In assay [5] the target is ΔImpα3, truncated importin α3 lacking the importin β-binding (IBB) domain (human). In words: BLI; BLItz; His-tagged Impα3 or ΔImpα3 immobilised on His-tag biosensors at 0.3 µM; peptides 1-7 µM; manufacturer's buffer; 25 °C; pseudo-first-order plots; apparent.
Assay [6] concerns the target human importin α3 (Impα3), intact (human). The assay is described as above.

Chain of human importin α3 (Impα3), intact (human) (O00629 whole entry, the tested form may be a part): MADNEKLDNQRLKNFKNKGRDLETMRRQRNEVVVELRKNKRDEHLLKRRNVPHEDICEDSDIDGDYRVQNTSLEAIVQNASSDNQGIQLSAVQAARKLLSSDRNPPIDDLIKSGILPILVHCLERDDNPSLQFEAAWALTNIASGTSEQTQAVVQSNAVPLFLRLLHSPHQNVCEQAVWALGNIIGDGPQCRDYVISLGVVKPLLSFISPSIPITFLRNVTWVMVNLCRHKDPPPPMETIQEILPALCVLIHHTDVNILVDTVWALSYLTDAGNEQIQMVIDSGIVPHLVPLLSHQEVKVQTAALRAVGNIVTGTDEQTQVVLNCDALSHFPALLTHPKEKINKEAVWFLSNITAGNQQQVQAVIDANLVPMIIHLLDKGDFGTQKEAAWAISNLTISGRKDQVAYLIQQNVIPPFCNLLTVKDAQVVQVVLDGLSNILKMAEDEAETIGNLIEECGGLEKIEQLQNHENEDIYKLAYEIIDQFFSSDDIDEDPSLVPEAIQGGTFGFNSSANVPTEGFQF

B1: NLS2-PADI4 peptide (peptide)
peptide: Ac-YKLFQEQQNEGHGEALLFEGIKKKKQQKI-NH2
Consider B1, for which, in assay [1], the Ka turned out to be 230000 M⁻¹; the Kd is 4.3 µM; the dH is -11.2 kcal/mol; the stoichiometry N (usually the number of molecules, sites or subunits per partner or assembly) turned out to be 1.1. In assay [2], this molecule had a Ka of 43000 M⁻¹, a Kd of 23 µM, a dH of -35.7 kcal/mol and a stoichiometry N of 1.08. Moreover, the Kd in assay [3] amounted to 4 µM. Further, the Kd in assay [4] was determined as 4 µM. Moreover, in assay [5], the Kd is 12 µM; the koff (as a rule, a measure of how fast the partners let go of each other) turned out to be 0.23 s⁻¹; the on-rate constant (kon) (commonly a measure of how fast the partners come together) is 20000 M⁻¹ s⁻¹. In assay [6], the Kd turned out to be 99 µM, the koff is 0.32 s⁻¹ and the kon turned out to be 3000 M⁻¹ s⁻¹.

The values above are taken from publication PMC9319256, “Human Enzyme PADI4 Binds to the Nuclear Carrier Importin α3” (Cells, 2022).
